# Data: paper PMC3362532, “Targeting Melanoma Metastasis and Immunosuppression with a New Mode of Melanoma Inhibitory Activity (MIA) Protein Inhibition” (PLoS ONE, 2012)
# Assays:
# [1] = target: T1, human MIA protein labelled for the HTFP assay (MIA-biotin conjugate immobilised; MIA-Ru(bpy)3 in solution) (human, UniProt Q16674 25-131, Ru(bpy)3 (from Ru(bpy)3-isothiocyanate) on the copy in solution; biotin on the immobilised copy; sites not stated); test: fluorescence polarisation; heterogeneous transition-metal-based fluorescence polarization (HTFP) assay: MIA-biotin immobilised in streptavidin-coated 96 well plates, MIA-Ru(bpy)3 in solution, RT, 250 uL per well, P/P0 against a well without MIA-biotin; peptides at 1.6 uM; settings: both partners purified
# T1 construct: human MIA protein; source: human MIA protein labeled with Ru(bpy)3-isothiocyanate, purified over a size exclusion column (Sephadex G75 M PD-10)
# T1 sequence (looked up): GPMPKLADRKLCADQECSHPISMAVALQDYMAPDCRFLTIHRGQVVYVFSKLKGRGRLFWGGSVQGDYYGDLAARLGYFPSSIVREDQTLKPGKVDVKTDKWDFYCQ
# [2] = target: T2, recombinant human MIA, wild type (human, UniProt Q16674 25-131); test: NMR titration; 2D 1H-15N HSQC of uniformly 15N-enriched MIA with increasing amounts of AR71, 300 K, pH 7; settings: both partners purified
# T2 construct: The printed residue numbers (C17, C106) fit the mature protein without its signal peptide; The vector may add a His tag; also called wt MIA; wild-type (wt) MIA; source: in vitro expression, Rapid Translation System RTS 500 E. coli HY Disulfide Kit (cell free)
# T2 sequence (looked up): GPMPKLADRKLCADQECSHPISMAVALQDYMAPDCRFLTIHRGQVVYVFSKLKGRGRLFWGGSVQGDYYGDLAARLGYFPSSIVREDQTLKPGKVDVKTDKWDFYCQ
binder,measurement,setting,value
Ac-FHWRYPLPLPGQ-NH2 [dodecapeptide AR71],binding result,[1],binds
same,binding result,[2],binds
